In publication PMC9482650, “Quantitative fragmentomics allow affinity mapping of interactomes” (Nature Communications, 2022):

T1: ARHGEF11, O15085
T1 sequence (O15085 42-136, limits assumed, looked up): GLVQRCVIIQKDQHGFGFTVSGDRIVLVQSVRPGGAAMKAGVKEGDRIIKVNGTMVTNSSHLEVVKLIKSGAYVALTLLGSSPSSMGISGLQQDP

T2: GRIP1_2, Q9Y3R0
T2 sequence (Q9Y3R0 145-248, limits assumed, looked up): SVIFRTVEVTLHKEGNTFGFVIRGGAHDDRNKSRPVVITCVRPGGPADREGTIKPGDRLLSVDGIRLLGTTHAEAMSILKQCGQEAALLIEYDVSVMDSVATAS

T3: HTRA3, P83110
T3 sequence (P83110 354-453, limits assumed, looked up): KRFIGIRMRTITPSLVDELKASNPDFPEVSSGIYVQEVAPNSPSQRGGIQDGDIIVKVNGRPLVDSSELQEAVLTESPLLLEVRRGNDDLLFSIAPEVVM

T4: APBA2_2, Q99767
T4 sequence (Q99767 654-744, limits assumed, looked up): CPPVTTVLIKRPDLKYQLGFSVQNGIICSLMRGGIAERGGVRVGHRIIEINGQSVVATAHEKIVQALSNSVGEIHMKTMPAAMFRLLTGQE

T5: MPP6, Q9NZW5
T5 sequence (Q9NZW5 125-219, limits assumed, looked up): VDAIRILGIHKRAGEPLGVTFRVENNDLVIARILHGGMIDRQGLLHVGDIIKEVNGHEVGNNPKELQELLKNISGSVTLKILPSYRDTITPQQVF

T6: MPDZ_12, O75970
T6 sequence (O75970 1857-1958, limits assumed, looked up): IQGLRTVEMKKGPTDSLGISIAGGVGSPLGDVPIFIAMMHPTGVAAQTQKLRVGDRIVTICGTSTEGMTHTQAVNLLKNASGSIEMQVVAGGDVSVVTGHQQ

T7: PARD3B_1, Q8TEW8
T7 sequence (Q8TEW8 196-299, limits assumed, looked up): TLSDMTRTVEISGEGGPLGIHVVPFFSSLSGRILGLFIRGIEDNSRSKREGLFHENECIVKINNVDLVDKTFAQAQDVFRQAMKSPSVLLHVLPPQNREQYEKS

T8: APBA1_1, Q02410
T8 sequence (Q02410 651-752, limits assumed, looked up): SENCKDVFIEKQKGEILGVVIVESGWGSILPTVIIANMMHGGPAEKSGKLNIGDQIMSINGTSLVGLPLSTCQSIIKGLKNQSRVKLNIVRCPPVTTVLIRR

T9: DLG3_2, Q92796
T9 sequence (Q92796 221-321, limits assumed, looked up): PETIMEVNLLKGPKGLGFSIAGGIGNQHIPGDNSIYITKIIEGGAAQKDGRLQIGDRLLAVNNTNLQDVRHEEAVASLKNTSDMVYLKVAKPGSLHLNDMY

T10: SHANK1, Q9Y566
T10 sequence (Q9Y566 658-767, limits assumed, looked up): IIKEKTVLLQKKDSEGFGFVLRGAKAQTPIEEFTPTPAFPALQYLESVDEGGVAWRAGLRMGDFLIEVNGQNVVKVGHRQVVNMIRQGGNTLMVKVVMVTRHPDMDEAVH

T11: DLG3_3, Q92796
T11 sequence (Q92796 374-475, limits assumed, looked up): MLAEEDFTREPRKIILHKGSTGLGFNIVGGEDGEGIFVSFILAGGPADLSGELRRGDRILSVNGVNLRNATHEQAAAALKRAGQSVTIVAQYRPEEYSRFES

T12: GRIP1_3, Q9Y3R0
T12 sequence (Q9Y3R0 247-346, limits assumed, looked up): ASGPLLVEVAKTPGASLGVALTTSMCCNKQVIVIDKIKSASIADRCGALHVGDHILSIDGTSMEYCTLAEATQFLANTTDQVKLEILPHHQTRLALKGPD


Target: T1, ARHGEF11, O15085
Assay: holdup assay
Set-up: key: below the threshold = too weak to quantify, mostly under pKd 3.1 to 4
Settings: plain residues with an end cap or a label only (N-terminal biotin on a linker: ado-ado)

Row | Binder | pKd
1 | TMQMSLKDLL [GLA, P06280] | 3.99
2 | PMESGICTIV [TTC24, A2A3L6] | 4.85

Target: T2, GRIP1_2, Q9Y3R0
Assay: holdup assay
Set-up: key: below the threshold = too weak to quantify, mostly under pKd 3.1 to 4
Settings: plain residues with an end cap or a label only (N-terminal biotin on a linker: ado-ado)

Row | Binder | pKd
3 | TMQMSLKDLL [GLA, P06280] | 3.5
4 | PMESGICTIV [TTC24, A2A3L6] | below the threshold

Target: T3, HTRA3, P83110
Assay: holdup assay
Set-up: key: below the threshold = too weak to quantify, mostly under pKd 3.1 to 4
Settings: plain residues with an end cap or a label only (N-terminal biotin on a linker: ado-ado)

Row | Binder | pKd
5 | TMQMSLKDLL [GLA, P06280] | below the threshold
6 | PMESGICTIV [TTC24, A2A3L6] | 3.92

Target: T4, APBA2_2, Q99767
Assay: holdup assay
Set-up: key: below the threshold = too weak to quantify, mostly under pKd 3.1 to 4
Settings: plain residues with an end cap or a label only (N-terminal biotin on a linker: ado-ado)

Row | Binder | pKd
7 | TMQMSLKDLL [GLA, P06280] | below the threshold
8 | PMESGICTIV [TTC24, A2A3L6] | below the threshold

Target: T5, MPP6, Q9NZW5
Assay: holdup assay
Set-up: key: below the threshold = too weak to quantify, mostly under pKd 3.1 to 4
Settings: plain residues with an end cap or a label only (N-terminal biotin on a linker: ado-ado)

Row | Binder | pKd
9 | TMQMSLKDLL [GLA, P06280] | below the threshold
10 | PMESGICTIV [TTC24, A2A3L6] | below the threshold

Target: T6, MPDZ_12, O75970
Assay: holdup assay
Set-up: key: below the threshold = too weak to quantify, mostly under pKd 3.1 to 4
Settings: plain residues with an end cap or a label only (N-terminal biotin on a linker: ado-ado)

Row | Binder | pKd
11 | TMQMSLKDLL [GLA, P06280] | below the threshold
12 | PMESGICTIV [TTC24, A2A3L6] | below the threshold

Target: T7, PARD3B_1, Q8TEW8
Assay: holdup assay
Set-up: key: below the threshold = too weak to quantify, mostly under pKd 3.1 to 4
Settings: plain residues with an end cap or a label only (N-terminal biotin on a linker: ado-ado)

Row | Binder | pKd
13 | TMQMSLKDLL [GLA, P06280] | 3.93
14 | PMESGICTIV [TTC24, A2A3L6] | 4.26

Target: GOPC, Q9HD26
Assay: holdup assay
Set-up: key: below the threshold = too weak to quantify, mostly under pKd 3.1 to 4
Settings: plain residues with an end cap or a label only (N-terminal biotin on a linker: ado-ado)

Row | Binder | pKd
15 | TMQMSLKDLL [GLA, P06280] | 3.49
16 | PMESGICTIV [TTC24, A2A3L6] | 4.4

Target: SCRIB_2, Q14160
Assay: holdup assay
Set-up: key: below the threshold = too weak to quantify, mostly under pKd 3.1 to 4
Settings: plain residues with an end cap or a label only (N-terminal biotin on a linker: ado-ado)

SCRIB_2, Q14160, sequence (Q14160 857-960): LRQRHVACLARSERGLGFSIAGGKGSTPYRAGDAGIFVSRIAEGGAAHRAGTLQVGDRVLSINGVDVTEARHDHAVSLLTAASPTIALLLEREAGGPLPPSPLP

Row | Binder | pKd
17 | TMQMSLKDLL [GLA, P06280] | below the threshold
18 | PMESGICTIV [TTC24, A2A3L6] | below the threshold

Target: GRID2IP_2, A4D2P6
Assay: holdup assay
Set-up: key: below the threshold = too weak to quantify, mostly under pKd 3.1 to 4
Settings: plain residues with an end cap or a label only (N-terminal biotin on a linker: ado-ado)

GRID2IP_2, A4D2P6, sequence (A4D2P6 272-370): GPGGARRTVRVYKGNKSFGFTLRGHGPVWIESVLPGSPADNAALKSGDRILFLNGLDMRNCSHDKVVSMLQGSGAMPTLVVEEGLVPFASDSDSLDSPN

Row | Binder | pKd
19 | TMQMSLKDLL [GLA, P06280] | 3.69
20 | PMESGICTIV [TTC24, A2A3L6] | 4.17

Target: GRIP2_4, Q9C0E4
Assay: holdup assay
Set-up: key: below the threshold = too weak to quantify, mostly under pKd 3.1 to 4
Settings: plain residues with an end cap or a label only (N-terminal biotin on a linker: ado-ado)

GRIP2_4, Q9C0E4, sequence (Q9C0E4 446-548): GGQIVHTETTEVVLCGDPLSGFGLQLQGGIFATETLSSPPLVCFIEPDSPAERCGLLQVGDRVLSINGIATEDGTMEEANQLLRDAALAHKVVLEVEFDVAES

Row | Binder | pKd
21 | TMQMSLKDLL [GLA, P06280] | below the threshold
22 | PMESGICTIV [TTC24, A2A3L6] | below the threshold

Target: DLG2_3, Q15700
Assay: holdup assay
Set-up: key: below the threshold = too weak to quantify, mostly under pKd 3.1 to 4
Settings: plain residues with an end cap or a label only (N-terminal biotin on a linker: ado-ado)

Row | Binder | pKd
23 | TMQMSLKDLL [GLA, P06280] | 3.52
24 | PMESGICTIV [TTC24, A2A3L6] | below the threshold

Target: GRASP, Q7Z6J2
Assay: holdup assay
Set-up: key: below the threshold = too weak to quantify, mostly under pKd 3.1 to 4
Settings: plain residues with an end cap or a label only (N-terminal biotin on a linker: ado-ado)

GRASP, Q7Z6J2, sequence (Q7Z6J2 96-193): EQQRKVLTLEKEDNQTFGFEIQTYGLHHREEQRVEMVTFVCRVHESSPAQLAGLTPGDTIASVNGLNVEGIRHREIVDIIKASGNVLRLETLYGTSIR

Row | Binder | pKd
25 | TMQMSLKDLL [GLA, P06280] | 4.6
26 | PMESGICTIV [TTC24, A2A3L6] | 4.65

Target: DLG5_1, Q8TDM6
Assay: holdup assay
Set-up: key: below the threshold = too weak to quantify, mostly under pKd 3.1 to 4
Settings: plain residues with an end cap or a label only (N-terminal biotin on a linker: ado-ado)

DLG5_1, Q8TDM6, sequence (Q8TDM6 617-713): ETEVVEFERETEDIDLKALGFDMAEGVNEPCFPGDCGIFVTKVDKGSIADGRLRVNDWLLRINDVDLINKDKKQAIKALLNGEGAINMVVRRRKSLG

Row | Binder | pKd
27 | TMQMSLKDLL [GLA, P06280] | below the threshold
28 | PMESGICTIV [TTC24, A2A3L6] | below the threshold

Target: TJP1_2, Q07157
Assay: holdup assay
Set-up: key: below the threshold = too weak to quantify, mostly under pKd 3.1 to 4
Settings: plain residues with an end cap or a label only (N-terminal biotin on a linker: ado-ado)

TJP1_2, Q07157, sequence (Q07157 181-274): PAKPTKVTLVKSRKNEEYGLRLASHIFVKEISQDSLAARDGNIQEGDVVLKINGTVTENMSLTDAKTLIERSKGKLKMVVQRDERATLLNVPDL

Row | Binder | pKd
29 | TMQMSLKDLL [GLA, P06280] | below the threshold
30 | PMESGICTIV [TTC24, A2A3L6] | 3.56

Target: Inadl_2, Q8NI35
Assay: holdup assay
Set-up: key: below the threshold = too weak to quantify, mostly under pKd 3.1 to 4
Settings: plain residues with an end cap or a label only (N-terminal biotin on a linker: ado-ado)

Inadl_2, Q8NI35, sequence (Q8NI35 238-335): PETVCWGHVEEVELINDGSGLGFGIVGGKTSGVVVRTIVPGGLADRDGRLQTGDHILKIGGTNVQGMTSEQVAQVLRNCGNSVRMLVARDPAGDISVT

Row | Binder | pKd
31 | TMQMSLKDLL [GLA, P06280] | below the threshold
32 | PMESGICTIV [TTC24, A2A3L6] | 3.76

Target: T8, APBA1_1, Q02410
Assay: holdup assay
Set-up: key: below the threshold = too weak to quantify, mostly under pKd 3.1 to 4
Settings: plain residues with an end cap or a label only (N-terminal biotin on a linker: ado-ado)

Row | Binder | pKd
33 | TMQMSLKDLL [GLA, P06280] | below the threshold
34 | PMESGICTIV [TTC24, A2A3L6] | below the threshold

Target: MAGI1_2, Q96QZ7
Assay: holdup assay
Set-up: key: below the threshold = too weak to quantify, mostly under pKd 3.1 to 4
Settings: plain residues with an end cap or a label only (N-terminal biotin on a linker: ado-ado)

MAGI1_2, Q96QZ7, sequence (Q96QZ7 456-580): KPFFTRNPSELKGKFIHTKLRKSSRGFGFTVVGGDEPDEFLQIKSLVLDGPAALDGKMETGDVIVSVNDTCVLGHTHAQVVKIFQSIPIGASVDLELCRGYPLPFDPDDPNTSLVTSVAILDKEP

Row | Binder | pKd
35 | TMQMSLKDLL [GLA, P06280] | below the threshold
36 | PMESGICTIV [TTC24, A2A3L6] | 3.7

Target: T9, DLG3_2, Q92796
Assay: holdup assay
Set-up: key: below the threshold = too weak to quantify, mostly under pKd 3.1 to 4
Settings: plain residues with an end cap or a label only (N-terminal biotin on a linker: ado-ado)

Row | Binder | pKd
37 | TMQMSLKDLL [GLA, P06280] | below the threshold
38 | PMESGICTIV [TTC24, A2A3L6] | 4.89

Target: T10, SHANK1, Q9Y566
Assay: holdup assay
Set-up: key: below the threshold = too weak to quantify, mostly under pKd 3.1 to 4
Settings: plain residues with an end cap or a label only (N-terminal biotin on a linker: ado-ado)

Row | Binder | pKd
39 | TMQMSLKDLL [GLA, P06280] | 3.59
40 | PMESGICTIV [TTC24, A2A3L6] | 4.04

Target: T11, DLG3_3, Q92796
Assay: holdup assay
Set-up: key: below the threshold = too weak to quantify, mostly under pKd 3.1 to 4
Settings: plain residues with an end cap or a label only (N-terminal biotin on a linker: ado-ado)

Row | Binder | pKd
41 | TMQMSLKDLL [GLA, P06280] | 3.65
42 | PMESGICTIV [TTC24, A2A3L6] | below the threshold

Target: LAP2, Q96RT1
Assay: holdup assay
Set-up: key: below the threshold = too weak to quantify, mostly under pKd 3.1 to 4
Settings: plain residues with an end cap or a label only (N-terminal biotin on a linker: ado-ado)

LAP2, Q96RT1, sequence (Q96RT1 other isoform, or with tags, fused parts or gaps): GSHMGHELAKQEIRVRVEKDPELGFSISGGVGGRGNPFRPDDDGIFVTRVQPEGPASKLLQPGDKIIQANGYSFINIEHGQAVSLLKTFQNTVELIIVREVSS

Row | Binder | pKd
43 | TMQMSLKDLL [GLA, P06280] | below the threshold
44 | PMESGICTIV [TTC24, A2A3L6] | below the threshold

Target: T12, GRIP1_3, Q9Y3R0
Assay: holdup assay
Set-up: key: below the threshold = too weak to quantify, mostly under pKd 3.1 to 4
Settings: plain residues with an end cap or a label only (N-terminal biotin on a linker: ado-ado)

Row | Binder | pKd
45 | TMQMSLKDLL [GLA, P06280] | below the threshold
46 | PMESGICTIV [TTC24, A2A3L6] | below the threshold

Target: Inadl_1, Q8NI35
Assay: holdup assay
Set-up: key: below the threshold = too weak to quantify, mostly under pKd 3.1 to 4
Settings: plain residues with an end cap or a label only (N-terminal biotin on a linker: ado-ado)

Inadl_1, Q8NI35, sequence (Q8NI35 113-229): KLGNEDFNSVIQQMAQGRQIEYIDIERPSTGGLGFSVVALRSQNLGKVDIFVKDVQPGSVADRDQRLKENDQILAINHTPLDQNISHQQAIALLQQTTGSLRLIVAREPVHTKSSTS

Row | Binder | pKd
47 | TMQMSLKDLL [GLA, P06280] | below the threshold
48 | PMESGICTIV [TTC24, A2A3L6] | below the threshold
